Tests used:
Assay in all cases: EMSA
Settings in all cases: HilD/H-NS EMSA: 10 mM Tris-HCl pH 8, 50 mM KCl, 1 mM DTT, 0.5 mM EDTA, 5% glycerol, 10 ug/ml BSA, ~100 ng DNA, RT 20 min; PhoP EMSA: 20 mM Tris-HCl pH 7.4 …
PhoP-H6 (phosphorylated) = system: PhoP-H6 (phosphorylated)
[1] = system: H-NS-FH (H-NS-3XFLAG-6XHis) (Escherichia coli EPEC E2348/69)
[2] = system: MBP-HilD (Salmonella enterica serovar Typhimurium SL1344?)

| Substance | binding (PhoP-H6 (phosphorylated)) | binding [1] | binding [2] |
| --- | --- | --- | --- |
| orgB promoter | 3 µM |  |  |
| grhD1 promoter (PhoP EMSA) | 3 µM |  |  |
| sigD regulatory region |  | > 1 µM | > 1 µM |
| ges promoter | > 6 µM |  |  |
| grhD1 upstream region (HilD/H-NS EMSA) |  | 0.5 µM | > 1 µM |
| ssrAB regulatory region |  | 0.25 µM |  |
